Data reported in PMC12691273.
Residue numbers refer to the chain shown, from its start. Names and notes keep the numbering of the source.

T1: 14-3-3 protein, Q5ZKC9
T1 chain: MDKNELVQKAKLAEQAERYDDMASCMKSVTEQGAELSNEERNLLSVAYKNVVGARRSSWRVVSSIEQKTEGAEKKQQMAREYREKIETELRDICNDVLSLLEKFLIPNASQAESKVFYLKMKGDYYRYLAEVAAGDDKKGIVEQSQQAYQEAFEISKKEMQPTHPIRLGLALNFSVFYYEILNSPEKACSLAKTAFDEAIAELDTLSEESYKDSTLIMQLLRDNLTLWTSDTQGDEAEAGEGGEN

B1: chicken forkhead box O1 (FOXO1) wild-type, A0A8V0XGP1 S311A (protein)
chain: MAEAPQLVDIDPDFEPLPRPRSCTWPLPRPEFNPPSSATSSPAPSCGGQPDGAAAAGAAVAVAASGALSADFISNLCLVEESEDFALPPAAAAPPESAACRCGDFSAPEAGCRLHPPGPPPVPPVPPAVAALSPGPVAGQPRKSSSSRRNAWGNLSYADLITKAIESSPEKRLTLSQIYEWMVKSVPYFKDKGDSNSSAGWKNSIRHNLSLHSKFIRVQNEGTGKSSWWMLNPEGGKSGKSPRRRAASMDNNSKFAKSRGRAAKKKASLQSGQEGNGDSPGSQFSKWPASPSSHSNDDFDNWSTFRPRTSANASTISGRLSPILPEQDDLGDGDVHSMVYPSSATKMTSTLPSLSEMSSSENMENLLDNLNLLSPNTSMTVSTQSSSAALMQQTPGYSFASSTTSICSPNPDYRKFTYAQASMNSLPQIPMQTLQDSKSSYGSMSQFNCPAGLLKELLTSDSPPHNDILASVDTGVSQAGGRALGQGVLMVTNSVMPTYGNQPPHNKMMNPNARPHQGHNQPTPAVNGRALSHTVNPMSHTSCLNRLSTVKTSLQVPMSHQMQMNAMNPYAPVNSCNGYGRVGIVSLHQEKLPSDLDDMLIERLDCDMESIIRNDLMDGETLDFNFDSVLPNQSFQHSVKTTTHSWVSG
B2: chicken forkhead box O1 (FOXO1) wild-type, A0A8V0XGP1 S248A (protein)
chain: B1 chain with S248A, A311S

Molecular target: T1, 14-3-3 protein, Q5ZKC9
Experiment: co-immunoprecipitation (IP FOXO1, WB 14-3-3), band quantification
Conditions: chain shown with the change; chicken granulosa cells, with 740-Y-P; n = 3; parent: est. 3.7; read off a plot

Binder | response
B1 | 3.7
B2 | 2.7
